Measured values taken from the Human Domainome abundance scans (Beltran et al. 2025).
± gives the uncertainty stated by the source.

B1: Lysine-specific demethylase 2B, residues 656 to 722; numbered along this chain, Q8NHM5 (parent)
chain: LPHTAVCLVCGEAGKEDTVEEEEGKFNLMLMECSICNEIIHPGCLKIKESEGVVNDELPNCWECPKC
B2: Dystrobrevin alpha, residues 235 to 294; numbered along this chain, Q9Y4J8 (parent)
chain: ENVFHPVECSYCHSESMMGFRYRCQQCHNYQLCQDCFWRGHAGGSHSNQHQMKEYTSWKS

Variants of: B1
Test: abundance fitness (aPCA) (normalised: wild type 0, dead -1); higher = more abundant; growth selection in yeast, the domain comes from the species named
Settings: Homo sapiens

Row | Variant | abundance fitness
1 | LPHTAVCLVCGEAGKEDTVEEEEGKFNLMLMECSICNEIIVPGCLKIKESEGVVNDELPNCWECPKC [H41V] | -1.21 ± 0.44
2 | LPHTAVCLVCGEAGKEDTVEEEEGKFNLMLMEASICNEIIHPGCLKIKESEGVVNDELPNCWECPKC [C33A] | -0.912 ± 0.2
3 | LPHTAVCLVCGEAGKEDTVEEEEGKFNLMLMEQSICNEIIHPGCLKIKESEGVVNDELPNCWECPKC [C33Q] | -0.581 ± 0.21
4 | LPHTAVCLVCGEAGKEDTVEEEEGKFNLMLMECSICNEIIHPGCLKIKEYEGVVNDELPNCWECPKC [S50Y] | 0.312 ± 0.15
5 | LPHTAVCLVCGMAGKEDTVEEEEGKFNLMLMECSICNEIIHPGCLKIKESEGVVNDELPNCWECPKC [E12M] | 0.089 ± 0.097
6 | LPHTAVCLVCGEAGKEDTVEEEEGKFNFMLMECSICNEIIHPGCLKIKESEGVVNDELPNCWECPKC [L28F] | 0.081 ± 0.1
7 | LPHTAVCLVCGEAGKEDTVEEEEGKFNLMLMECSICNEIIHPGCLKIKESEGVVNSELPNCWECPKC [D56S] | 0.07 ± 0.077
8 | LPHTAVCLVCGEAGKEDTVEEEEGKFNLMLMECSICNEIIHPGCLKIKESEGVVNDELPNCWECFKC [P65F] | -0.401 ± 0.16
9 | LPHTAVCLVCGEAGKYDTVEEEEGKFNLMLMECSICNEIIHPGCLKIKESEGVVNDELPNCWECPKC [E16Y] | -0.786 ± 0.23
10 | LPHTAVCLVCGEAGKCDTVEEEEGKFNLMLMECSICNEIIHPGCLKIKESEGVVNDELPNCWECPKC [E16C] | -0.556 ± 0.21
11 | LPHTAVCLVCGEAGKEDTVEEEEGKFNLMLMECSICNEIIHPGWLKIKESEGVVNDELPNCWECPKC [C44W] | -0.8 ± 0.16
12 | LPHCAVCLVCGEAGKEDTVEEEEGKFNLMLMECSICNEIIHPGCLKIKESEGVVNDELPNCWECPKC [T4C] | -0.395 ± 0.2
13 | LPHVAVCLVCGEAGKEDTVEEEEGKFNLMLMECSICNEIIHPGCLKIKESEGVVNDELPNCWECPKC [T4V] | -0.947 ± 0.28
14 | LPHTAVCLVCGEAGKEDTVEEEEGKFNLMLMDCSICNEIIHPGCLKIKESEGVVNDELPNCWECPKC [E32D] | -0.324 ± 0.15
15 | LPHTAVCLVCGEAGKEDTVEEEEGKFNLMLMICSICNEIIHPGCLKIKESEGVVNDELPNCWECPKC [E32I] | -0.072 ± 0.19
16 | LPHTAVCLVCGEAGKEDTVEEEEGKFNLMLMTCSICNEIIHPGCLKIKESEGVVNDELPNCWECPKC [E32T] | 0.02 ± 0.12
17 | LPHTAVCLMCGEAGKEDTVEEEEGKFNLMLMECSICNEIIHPGCLKIKESEGVVNDELPNCWECPKC [V9M] | -0.049 ± 0.12
18 | LPHTAVCLWCGEAGKEDTVEEEEGKFNLMLMECSICNEIIHPGCLKIKESEGVVNDELPNCWECPKC [V9W] | -0.727 ± 0.45
19 | LPHTAVCLVCGEAQKEDTVEEEEGKFNLMLMECSICNEIIHPGCLKIKESEGVVNDELPNCWECPKC [G14Q] | -0.009 ± 0.11

Row | Variant | abundance fitness
20 | LPHTAVCLVCGEAGKEDTVEEEEGKFNLMLMECSECNEIIHPGCLKIKESEGVVNDELPNCWECPKC [I35E] | -0.399 ± 0.22
21 | LPHTAVCLVCGEAGKEDTVEEEEGKFNLMLMECSCCNEIIHPGCLKIKESEGVVNDELPNCWECPKC [I35C] | -0.119 ± 0.21
22 | LPHTYVCLVCGEAGKEDTVEEEEGKFNLMLMECSICNEIIHPGCLKIKESEGVVNDELPNCWECPKC [A5Y] | 0.625 ± 0.35
23 | LPHTAVCLVCGEAGKEDTVEEEEGKFNLMLMECSICQEIIHPGCLKIKESEGVVNDELPNCWECPKC [N37Q] | 0.183 ± 0.1
24 | LPHTAVCLVCGEAGKEDTVEEEEGKFNLMLMECSICWEIIHPGCLKIKESEGVVNDELPNCWECPKC [N37W] | -0.267 ± 0.1
25 | LPHTAVCHVCGEAGKEDTVEEEEGKFNLMLMECSICNEIIHPGCLKIKESEGVVNDELPNCWECPKC [L8H] | -0.281 ± 0.3
26 | LPHTAVCDVCGEAGKEDTVEEEEGKFNLMLMECSICNEIIHPGCLKIKESEGVVNDELPNCWECPKC [L8D] | -0.573 ± 0.24
27 | IPHTAVCLVCGEAGKEDTVEEEEGKFNLMLMECSICNEIIHPGCLKIKESEGVVNDELPNCWECPKC [L1I] | 0.781 ± 0.11
28 | WPHTAVCLVCGEAGKEDTVEEEEGKFNLMLMECSICNEIIHPGCLKIKESEGVVNDELPNCWECPKC [L1W] | -0.426 ± 0.12
29 | APHTAVCLVCGEAGKEDTVEEEEGKFNLMLMECSICNEIIHPGCLKIKESEGVVNDELPNCWECPKC [L1A] | -0.175 ± 0.22
30 | LPMTAVCLVCGEAGKEDTVEEEEGKFNLMLMECSICNEIIHPGCLKIKESEGVVNDELPNCWECPKC [H3M] | 0.478 ± 0.15
31 | LPHTAVCLVCGEAGKEDTVEEEEGKFNLMLMECSICNEIIHPGCLKIKESEGVVNDELPNMWECPKC [C61M] | -0.12 ± 0.12
32 | LPHTAVCLVCGEAGKEDTVEEEEGKFNLMLMECSICNEIIHPGCLKIKESEGVVNDELPNYWECPKC [C61Y] | 0.073 ± 0.17
33 | LPHTAVCLVCGEAGKEDTVEEEEGKFNLMLMECSICNEIIHPGCLAIKESEGVVNDELPNCWECPKC [K46A] | -0.01 ± 0.1
34 | LPHTAVCLVCGEAGKEDTVEEEEGKFNLMLMECSICNEIIHPGCLEIKESEGVVNDELPNCWECPKC [K46E] | 0.206 ± 0.14
35 | LPHTAVCLVCGEAGKEDEVEEEEGKFNLMLMECSICNEIIHPGCLKIKESEGVVNDELPNCWECPKC [T18E] | -0.471 ± 0.17
36 | LPHTAVCLVCGEAGKEDDVEEEEGKFNLMLMECSICNEIIHPGCLKIKESEGVVNDELPNCWECPKC [T18D] | -0.527 ± 0.23
37 | LPHTAVCLVCGEAGKEDKVEEEEGKFNLMLMECSICNEIIHPGCLKIKESEGVVNDELPNCWECPKC [T18K] | -0.131 ± 0.15

Variants of: B2
Test: as above
Settings: Homo sapiens

Row | Variant | abundance fitness
38 | CNVFHPVECSYCHSESMMGFRYRCQQCHNYQLCQDCFWRGHAGGSHSNQHQMKEYTSWKS [E1C] | 0.297 ± 0.3
39 | GNVFHPVECSYCHSESMMGFRYRCQQCHNYQLCQDCFWRGHAGGSHSNQHQMKEYTSWKS [E1G] | -0.336 ± 0.066
40 | ANVFHPVECSYCHSESMMGFRYRCQQCHNYQLCQDCFWRGHAGGSHSNQHQMKEYTSWKS [E1A] | -0.257 ± 0.092
41 | DNVFHPVECSYCHSESMMGFRYRCQQCHNYQLCQDCFWRGHAGGSHSNQHQMKEYTSWKS [E1D] | 0.028 ± 0.091
